Experimental data taken from the supplement of paper PMC10724198.
± gives the standard deviation of the averaged measurements.

Tested on: Saccharomyces cerevisiae
Assay: protein stability index of tFT-peptide fusion (C-terminal peptide) (PSI (0-1 scale)); higher = more stable (slower turnover)
Conditions: temperature: 30 C
Procedure: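 MPS profiling in S. cerevisiae of the yeast C-terminome library: the last 12 aa of each annotated ORF are fused to the C-terminus of a sfGFP-mCherry timer, after a GGGS linker. Cells are FACS-sorted into 8 mCherry/sfGFP bins and deep-sequenced. PSI runs from 0 (unstable) to 1 (stable); wild type and das1Δ backgrounds, two technical replicates each.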

[1] = genetic background: das1 deletion

Sequence	protein stability index [1]	protein stability index (genetic background: wild type)
IDNPEACEMCSG [RNR1 C-terminal 12 aa]	0.702 ± 0.022	0.694 ± 0.027
IEKADIVQQAIR [SLP1 C-terminal 12 aa]	0.691 ± 0.008	0.66 ± 0.033
IFKKIRLLLHVN [MCP1 C-terminal 12 aa]	0.615 ± 0.013	0.2 ± 0.03
IIFGHDNLWTVR [ALG7 C-terminal 12 aa]	0.742 ± 0.022	0.767 ± 0.041
IIQSYINLLEEN [NKP2 C-terminal 12 aa]	0.708 ± 0.017	0.756 ± 0.059
IKAAIDRVDHSL [YKR018C C-terminal 12 aa]	0.6778 ± 0.0045	0.692 ± 0.041
IKLNKKKVKLST [HHO1 C-terminal 12 aa]	0.664 ± 0.0086	0.6099 ± 0.0033
IKQRELNAADKC [MAL11 C-terminal 12 aa]	0.696 ± 0.0096	0.6741 ± 0.0048
IKYNWERCFNGE [YDR521W C-terminal 12 aa]	0.71 ± 0.014	0.697 ± 0.04
ILLITGFKSSFT [SRL4 C-terminal 12 aa]	0.72 ± 0.018	0.737 ± 0.038
ILNCVGSAKISG [YGR291C C-terminal 12 aa]	0.668 ± 0.025	0.654 ± 0.02
ILRQYFTDLASS [REA1 C-terminal 12 aa]	0.675 ± 0.026	0.696 ± 0.041
IMPDRFDYENYY [TMS1 C-terminal 12 aa]	0.739 ± 0.0052	0.698 ± 0.0097
INDWLSSWKRSK [CRR1 C-terminal 12 aa]	0.756 ± 0.017	0.727 ± 0.021
INSQTMTVTTAL [VHC1 C-terminal 12 aa]	0.685 ± 0.039	0.69051 ± 0.00012
IPAYKKHGIQKN [OSH7 C-terminal 12 aa]	0.694 ± 0.012	0.693 ± 0.038
IQTINEVRTNYM [RSE1 C-terminal 12 aa]	0.69 ± 0.041	0.744 ± 0.11

Sequence	protein stability index [1]	protein stability index (genetic background: wild type)
IRDILKLGHPTR [GYP8 C-terminal 12 aa]	0.699 ± 0.043	0.666 ± 0.034
IREFPEYFAAQA [RPL10 C-terminal 12 aa]	0.682 ± 0.015	0.671 ± 0.03
IRKYGYNLAAYT [YLR462W C-terminal 12 aa]	0.6649 ± 0.00076	0.6563 ± 0.0049
IRRYPFLWIPFL [YMR316C-B C-terminal 12 aa]	0.709 ± 0.04	0.147 ± 0.015
IRYSMPYRLASN [YLR264C-A C-terminal 12 aa]	0.6856 ± 0.0022	0.648 ± 0.019
ISKKVFGNKLHQ [MTM1 C-terminal 12 aa]	0.709 ± 0.0014	0.656 ± 0.022
ISLLSQFVYKGK [EXO1 C-terminal 12 aa]	0.7 ± 0.016	0.678 ± 0.01
ISQWREWIDEKL [SRP102 C-terminal 12 aa]	0.679 ± 0.025	0.72 ± 0.029
ITKQKALDYHYL [CBS2 C-terminal 12 aa]	0.698 ± 0.0089	0.667 ± 0.016
ITSKPPATVEWE [GUA1 C-terminal 12 aa]	0.695 ± 0.01	0.726 ± 0.015
IYKYCCCCFCCC [YCK3 C-terminal 12 aa]	0.6598 ± 0.0038	0.594 ± 0.046
KALRELQAEMGL [SNF7 C-terminal 12 aa]	0.696 ± 0.0095	0.688 ± 0.025
KASNGHIELIGE [CRF1 C-terminal 12 aa]	0.674 ± 0.002	0.699 ± 0.034
KDAFLKELGLQN [PRD1 C-terminal 12 aa]	0.69 ± 0.013	0.678 ± 0.028
KDEVTDDMQLEV [JLP2 C-terminal 12 aa]	0.6997 ± 0.002	0.68 ± 0.03
KDSKNGASTLTS [YSW1 C-terminal 12 aa]	0.691 ± 0.041	0.672 ± 0.018
KDVETLSVSDEK [SEO1 C-terminal 12 aa]	0.686 ± 0.021	0.696 ± 0.043
